Here are results for 1 protein from US20180360992A1 (PRECIGEN, published 2018).

The data set deals with the molecule itself. The data set can be described thus: native-PAGE/immunoblot of conditioned media of transfected 293T cells; self-association (homodimer). (In general: A western blot detects proteins with antibodies after separation by electrophoresis.)

B1: S100A1 with C-terminal fp2a-cleaved linker tail (2A tail), as cleaved from lead dual-gene and triple-gene constructs (other)
chain: MGSELETAMETLINVFHAHSGKEGDKYKLSKKELKELLQTELSGFLDAQKDVDAVDKVMKELDENGDGEVDFQEYVVLVAALTVACNNFFWENSRAKRAPVKQGSGATNFSLLKQAGDVEENPG
notes: Homodimer seen by native PAGE and immunoblot; also called S100A1 with 2A tail
On to B1, for which the binding result was “binds”.
